Results from PMC4060006, “SM proteins Sly1 and Vps33 co-assemble with Sec17 and SNARE complexes to oppose SNARE disassembly by Sec18” (eLife, 2014).

T1: Sly1 (full length, aa1-667) (S. cerevisiae, UniProt P22213 1-666)
T1 construct: Sly1, Golgi SM protein, S. cerevisiae, printed as full-length aa1-667; construct His6-(tev)-Sly1; as I recall the UniProt entry has 666 residues; the printed 667 may count the stop codon; also called His6-Sly1; Golgi SM protein; source: E. coli (pRIL plasmid), purified (Ni-NTA)
T1 sequence (looked up): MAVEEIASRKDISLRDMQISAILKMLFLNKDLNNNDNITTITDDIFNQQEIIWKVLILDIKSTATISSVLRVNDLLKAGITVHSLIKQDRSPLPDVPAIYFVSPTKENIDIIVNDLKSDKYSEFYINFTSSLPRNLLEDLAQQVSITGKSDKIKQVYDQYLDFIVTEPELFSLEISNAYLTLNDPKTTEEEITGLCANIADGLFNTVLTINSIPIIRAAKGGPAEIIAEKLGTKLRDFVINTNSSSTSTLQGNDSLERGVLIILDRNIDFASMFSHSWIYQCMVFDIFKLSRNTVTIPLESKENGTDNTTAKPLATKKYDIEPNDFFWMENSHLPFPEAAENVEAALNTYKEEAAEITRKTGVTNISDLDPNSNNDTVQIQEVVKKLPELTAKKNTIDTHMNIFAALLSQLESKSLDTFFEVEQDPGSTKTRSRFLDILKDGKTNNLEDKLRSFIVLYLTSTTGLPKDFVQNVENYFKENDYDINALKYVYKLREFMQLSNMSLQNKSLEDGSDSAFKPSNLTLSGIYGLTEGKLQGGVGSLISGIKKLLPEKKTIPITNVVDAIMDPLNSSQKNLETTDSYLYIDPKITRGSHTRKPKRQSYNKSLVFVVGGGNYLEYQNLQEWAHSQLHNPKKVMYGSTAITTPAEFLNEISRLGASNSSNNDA

T2: His6-Sec22 (soluble domain, aa1-188) (S. cerevisiae, UniProt P22214 1-188)
T2 construct: Sec22, Golgi R-SNARE, S. cerevisiae, soluble domain aa1-188; also called Golgi R-SNARE; source: E. coli (pRIL plasmid), purified (Ni-NTA); not shown: His6, N-terminal, kept
T2 sequence (looked up): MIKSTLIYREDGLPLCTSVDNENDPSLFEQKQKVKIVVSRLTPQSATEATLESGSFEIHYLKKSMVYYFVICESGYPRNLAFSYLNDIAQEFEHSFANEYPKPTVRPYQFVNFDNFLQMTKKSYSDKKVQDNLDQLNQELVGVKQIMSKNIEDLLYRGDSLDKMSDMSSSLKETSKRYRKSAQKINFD

T3: Golgi SNARE complex assembled on immobilized GST-Sed5 SNARE domain (S. cerevisiae, UniProt Q01590 170-319; P25385 1-222; P22804 1-123; P22214 1-188)
T3 construct: Sed5, Qa-SNARE, S. cerevisiae, aa170-319; Bos1, Qb-SNARE, S. cerevisiae, aa1-222; Bet1, Qc-SNARE, S. cerevisiae, aa1-123; Sec22, R-SNARE, S. cerevisiae, aa1-188; quaternary SNARE bundle, no membranes; also called Golgi SNARE bundle; S.C; source: assembled on glutathione sepharose from proteins made in E. coli; not shown: GST, N-terminal, kept; His6, N-terminal, …
T3 sequence (looked up) 1: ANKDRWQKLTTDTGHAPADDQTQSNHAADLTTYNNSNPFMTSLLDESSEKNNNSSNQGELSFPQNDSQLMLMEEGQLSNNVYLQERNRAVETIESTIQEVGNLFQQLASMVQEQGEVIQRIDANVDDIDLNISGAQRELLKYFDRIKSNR
T3 sequence (looked up) 2: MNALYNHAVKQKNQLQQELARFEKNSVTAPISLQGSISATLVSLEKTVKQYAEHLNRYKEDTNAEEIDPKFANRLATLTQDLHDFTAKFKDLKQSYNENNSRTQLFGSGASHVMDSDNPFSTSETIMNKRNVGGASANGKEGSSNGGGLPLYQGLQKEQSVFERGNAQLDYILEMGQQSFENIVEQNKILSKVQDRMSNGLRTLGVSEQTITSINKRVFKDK
T3 sequence (looked up) 3: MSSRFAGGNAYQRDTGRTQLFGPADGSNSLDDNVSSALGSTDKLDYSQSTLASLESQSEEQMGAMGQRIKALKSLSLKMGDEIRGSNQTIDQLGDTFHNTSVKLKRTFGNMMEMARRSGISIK
T3 sequence (looked up) 4: T2 sequence (looked up)

B1: Vps33 (natural protein, S. cerevisiae, UniProt P20795 1-691, looked up)
chain: MNRFWNTKKFSLTNADGLCATLNEISQNDEVLVVQPSVLPVLNSLLTFQDLTQSTPVRKITLLDDQLSDDLPSALGSVPQMDLIFLIDVRTSLRLPPQLLDAAQKHNLSSLHIIYCRWKPSFQNTLEDTEQWQKDGFDLNSKKTHFPNVIESQLKELSNEYTLYPWDLLPFPQIDENVLLTHSLYNMENVNMYYPNLRSLQSATESILVDDMVNSLQSLIFETNSIITNVVSIGNLSKRCSHLLKKRIDEHQTENDLFIKGTLYGERTNCGLEMDLIILERNTDPITPLLTQLTYAGILDDLYEFNSGIKIKEKDMNFNYKEDKIWNDLKFLNFGSIGPQLNKLAKELQTQYDTRHKAESVHEIKEFVDSLGSLQQRQAFLKNHTTLSSDVLKVVETEEYGSFNKILELELEILMGNTLNNDIEDIILELQYQYEVDQKKILRLICLLSLCKNSLREKDYEYLRTFMIDSWGIEKCFQLESLAELGFFTSKTGKTDLHITTSKSTRLQKEYRYISQWFNTVPIEDEHAADKITNENDDFSEATFAYSGVVPLTMRLVQMLYDRSILFHNYSSQQPFILSREPRVSQTEDLIEQLYGDSHAIEESIWVPGTITKKINASIKSNNRRSIDGSNGTFHAAEDIALVVFLGGVTMGEIAIMKHLQKILGKKGINKRFIIIADGLINGTRIMNSIS
notes: Vps33, SM protein of the vacuole, S. cerevisiae; also called vacuole SM protein; late endolysosomal SM; source: insect cells, Baculovirus system, purified
B2: GST-Sed5 SNARE domain (aa170-319) (domain or fragment, S. cerevisiae, UniProt Q01590 170-319, looked up)
chain: T3 sequence (looked up) 1
notes: Sed5, Golgi Qa-SNARE, S. cerevisiae, aa170-319, lacks the N-peptide, the Habc domain and the transmembrane domain; also called Golgi Qa-SNARE lacking N-peptide and Habc domain; not shown: GST, N-terminal, kept
B3: Sec17 (natural protein, S. cerevisiae, UniProt P32602 1-292, looked up)
chain: MSDPVELLKRAEKKGVPSSGFMKLFSGSDSYKFEEAADLCVQAATIYRLRKELNLAGDSFLKAADYQKKAGNEDEAGNTYVEAYKCFKSGGNSVNAVDSLENAIQIFTHRGQFRRGANFKFELGEILENDLHDYAKAIDCYELAGEWYAQDQSVALSNKCFIKCADLKALDGQYIEASDIYSKLIKSSMGNRLSQWSLKDYFLKKGLCQLAATDAVAAARTLQEGQSEDPNFADSRESNFLKSLIDAVNEGDSEQLSEHCKEFDNFMRLDKWKITILNKIKESIQQQEDDLL
notes: Sec17, S. cerevisiae; construct CBD-(intein)-Sec17 in pTYB12; an intein tag is as a rule cut off during purification; also called α-SNAP homolog; Sec18 adapter; source: E. coli (pRIL plasmid), purified
B4: Vam3-GST (cytoplasmic domain of Vam3, aa1-264) (domain or fragment, S. cerevisiae, UniProt Q12241 1-264, looked up)
chain: MSFFDIEAQSSKGNSQQEPQFSTNQKTKELSNLIETFAEQSRVLEKECTKIGSKRDSKELRYKIETELIPNCTSVRDKIESNILIHQNGKLSADFKNLKTKYQSLQQSYNQRKSLFPLKTPISPGTSKERKDIHPRTEAVRQDPESSYISIKVNEQSPLLHNEGQHQLQLQEEQEQQQQGLSQEELDFQTIIHQERSQQIGRIHTAVQEVNAIFHQLGSLVKEQGEQVTTIDENISHLHDNMQNANKQLTRADQHQRDRNKCGK
notes: Vam3, vacuole Qa-SNARE, S. cerevisiae, cytoplasmic domain aa1-264, no transmembrane domain; TEV site between SNARE and GST; also called Vam3 cytoplasmic domain; vacuole Qa-SNARE; not shown: GST, C-terminal, kept

Experiments:
Details in all cases: both partners purified
[1] = molecular target: T4, Sec17–vacuole SNARE complex (Sec17 bound to the vacuole SNARE complex on Vam3-GST) (S. cerevisiae, UniProt Q12241 1-264; Q04338 1-194; P32912 190-316; Q12255 1-231; P32602 1-292); assay: pull-down; stoichiometry: complexes assembled on immobilised SNARE complex under saturation binding conditions; SDS-PAGE, SYPRO Ruby, band intensities against standard curves of the purified proteins; apparent
T4 construct: Vam3, Qa-SNARE, S. cerevisiae, aa1-264; Vti1, Qb-SNARE, S. cerevisiae, aa1-194; Vam7, Qc-SNARE, S. cerevisiae, SNARE domain aa190-316; Nyv1, R-SNARE, S. cerevisiae, aa1-231; Sec17, S. cerevisiae; in most experiments Sec17 and the SM were added together to the immobilised SNARE complex; also called SNARE–Sec17 complex; Sec17–SNARE complex; source: assembled …
T4 sequence (Q04338 1-194, chain 2 of 4, one chain of several): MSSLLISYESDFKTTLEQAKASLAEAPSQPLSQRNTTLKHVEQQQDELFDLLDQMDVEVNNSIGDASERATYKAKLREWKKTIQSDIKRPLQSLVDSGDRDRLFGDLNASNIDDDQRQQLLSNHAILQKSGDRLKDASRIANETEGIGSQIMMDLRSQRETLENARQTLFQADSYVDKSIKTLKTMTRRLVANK
T4 sequence (P32912 190-316, chain 3 of 4, one chain of several): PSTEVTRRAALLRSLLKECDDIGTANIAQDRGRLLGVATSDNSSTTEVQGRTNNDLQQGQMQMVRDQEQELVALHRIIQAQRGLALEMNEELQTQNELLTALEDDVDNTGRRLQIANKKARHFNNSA
T4 sequence (Q12255 1-231, chain 4 of 4, one chain of several): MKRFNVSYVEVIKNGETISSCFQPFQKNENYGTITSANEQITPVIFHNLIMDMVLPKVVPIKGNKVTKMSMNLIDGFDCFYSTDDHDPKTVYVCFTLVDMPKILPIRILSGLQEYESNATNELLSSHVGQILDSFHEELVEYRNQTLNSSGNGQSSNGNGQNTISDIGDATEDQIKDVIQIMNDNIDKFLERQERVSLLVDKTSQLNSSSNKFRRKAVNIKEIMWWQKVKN

[2] = molecular target: T5, vacuole SNARE complex assembled on immobilized Vam3-GST (S. cerevisiae, UniProt Q12241 1-264; Q04338 1-194; P32912 190-316; Q12255 1-231); assay: pull-down; quantitative: immobilised SNARE complex, SM concentration varied, with or without Sec17, 30°C; SYPRO Ruby with standard curves; fractional saturation against free SM, one-site model; apparent (Kdobs), non-equilibrium measurements
T5 construct: Vam3, Qa-SNARE, S. cerevisiae, aa1-264; Vti1, Qb-SNARE, S. cerevisiae, aa1-194; Vam7, Qc-SNARE, S. cerevisiae, SNARE domain aa190-316; Nyv1, R-SNARE, S. cerevisiae, aa1-231; quaternary SNARE bundle, no membranes; also called vacuolar SNARE complex; SNARE bundle; source: assembled on glutathione sepharose from proteins made in E. coli; not shown: GST, C-terminal, …
T5 sequence (Q04338 1-194, chain 2 of 4, one chain of several): as the sequence (Q04338 1-194, chain 2 of 4, one chain of several) above
T5 sequence (P32912 190-316, chain 3 of 4, one chain of several): as the sequence (P32912 190-316, chain 3 of 4, one chain of several) above
T5 sequence (Q12255 1-231, chain 4 of 4, one chain of several): as the sequence (Q12255 1-231, chain 4 of 4, one chain of several) above

[3] = molecular target: T4, Sec17–vacuole SNARE complex (Sec17 …); assay: as above
[4] = molecular target: T1, Sly1 (full length, aa1-667); assay: pull-down; SNARE complexes (500 nM) on immobilised Qa-SNARE pre-incubated with Sec17 (20 µM) and Sly1 (10 µM) or Vps33 (2.5 µM) 60 min at 30°C in Disassembly Buffer (SM Assay Buffer, 1 mM ATP, 2 mM MgCl2), then Sec18 (300 nM); what stayed on the resin after complete disassembly, SDS-PAGE
[5] = molecular target: T2, His6-Sec22 (soluble domain, aa1-188); assay: pull-down; re-assembly with added SNAREs: as a9, but soluble Qb, Qc and R-SNAREs (~3 µM each) added along with the EDTA quench, 30 min at 30°C
[6] = molecular target: T5, vacuole SNARE complex assembled on …; assay: pull-down; stoichiometry: complexes assembled on immobilised SNARE complex under saturation binding conditions; SDS-PAGE, SYPRO Ruby, band intensities against standard curves of the purified proteins; apparent
[7] = molecular target: T3, Golgi SNARE complex assembled on …; assay: as above
Vps33 = molecular target: B1; assay: pull-down; SNARE complexes (500 nM) on immobilised Qa-SNARE pre-incubated with Sec17 (20 µM) and Sly1 (10 µM) or Vps33 (2.5 µM) 60 min at 30°C in Disassembly Buffer (SM Assay Buffer, 1 mM ATP, 2 mM MgCl2), then Sec18 (300 nM); what stayed on the resin after complete disassembly, SDS-PAGE

B1
stoichiometry N [1]: 1 Vps33 per SNARE complex | Kd [2]: 1600 ± 100 nM | Kd [3]: 300 ± 10 nM

B2
binding result [4]: binds | binding result [5]: binds

B3
stoichiometry N [6]: 3 Sec17 per SNARE complex | stoichiometry N [7]: 3 Sec17 per SNARE complex

B4
binding result (Vps33): binds
